# Measurements published in US20230134571A1 (INTERNATIONAL AIDS VACCINE INITIATIVE, published 2023).
# Tests used:
# Assay in all cases: cell-based or functional assay
# [1] = molecular target: HIV Env of isolate MS208.A1 (clade A) (HIV)
# [2] = molecular target: HIV Env of isolate ZM53M.PB12 (clade C) (HIV)
# [3] = molecular target: HIV Env of isolate Q23.17 (clade A) (HIV)
# [4] = molecular target: HIV Env of isolate Q842.d12 (clade A) (HIV)
# [5] = molecular target: HIV Env of isolate 3301.v1.c24 (clade AC) (HIV)
# [6] = molecular target: HIV Env of isolate 0815.v3.c3 (clade ACD) (HIV)
# [7] = molecular target: HIV Env of isolate BJOX010000.06.2 (clade AE) (HIV)
# [8] = molecular target: HIV Env of isolate BJOX028000.10.3 (clade AE) (HIV)
# [9] = molecular target: HIV Env of isolate CNE5 (clade AE) (HIV)
# [10] = molecular target: HIV Env of isolate R3265.c06 (clade AE) (HIV)
# [11] = molecular target: HIV Env of isolate T251-18 (clade AG) (HIV)
# [12] = molecular target: HIV Env of isolate 1006_11_C3_1601 (clade B) (HIV)
# [13] = molecular target: HIV Env of isolate 1054_07_TC4_1499 (clade B) (HIV)
# [14] = molecular target: HIV Env of isolate RHPA4259.7 (clade B) (HIV)
# [15] = molecular target: HIV Env of isolate SC05_8C11_2344 (clade B) (HIV)
# [16] = molecular target: HIV Env of isolate CNE21 (clade BC) (HIV)
# [17] = molecular target: HIV Env of isolate 191084B7-19 (clade A) (HIV)
# [18] = molecular target: HIV Env of isolate 249MB10 (clade C) (HIV)
# [19] = molecular target: HIV Env of isolate 7030102001E5(Rev-) (clade C) (HIV)
# [20] = molecular target: HIV Env of isolate Ce2060_G9 (clade C) (HIV)
# [21] = molecular target: HIV Env of isolate Ce704809221_1B3 (clade C) (HIV)
# [22] = molecular target: HIV Env of isolate Du156.12 (clade C) (HIV)
# [23] = molecular target: HIV Env of isolate HIV-0013095-2.11 (clade C) (HIV)
# [24] = molecular target: HIV Env of isolate ZM109F.PB4 (clade C) (HIV)
Binder,IC50 (µg/ml) with constrains [1] [µg/mL],IC80 (µg/ml) with constrains [1] [µg/mL],IC50 (µg/ml) with constrains [2] [µg/mL],IC80 (µg/ml) with constrains [3] [µg/mL],IC50 (µg/ml) with constrains [4] [µg/mL],IC80 (µg/ml) with constrains [4] [µg/mL],IC50 (µg/ml) with constrains [5] [µg/mL],IC80 (µg/ml) with constrains [5] [µg/mL],IC50 (µg/ml) with constrains [6] [µg/mL],IC80 (µg/ml) with constrains [6] [µg/mL],IC50 (µg/ml) with constrains [7] [µg/mL],IC80 (µg/ml) with constrains [7] [µg/mL],IC50 (µg/ml) with constrains [8] [µg/mL],IC80 (µg/ml) with constrains [8] [µg/mL],IC50 (µg/ml) with constrains [9] [µg/mL],IC80 (µg/ml) with constrains [9] [µg/mL],IC50 (µg/ml) with constrains [10] [µg/mL],IC80 (µg/ml) with constrains [10] [µg/mL],IC50 (µg/ml) with constrains [11] [µg/mL],IC80 (µg/ml) with constrains [11] [µg/mL],other results
"ePGDM13 (antibody, V domains shown) VH: QAQLVQSGPEVRKPGTSVKVSCKNPGNTLTTYDLHWVRQVPGQGLQWMGWISHEGDKKVIVERFKAKVTIDWDRSTNTAYLQLSGLTSEDTAVYYCAKGSKHRLRDYALYDEDGALNWAVDVDYLANLEFWGQGTAVTVSS VL: DIVLTQSPLSLSVTPGESASISCKSSHSLQHGDRNNYLAWYVQKPGRSPQLLLDLASERASGVPDRFSGSGSEKDFTLKISRVETEDVGTYYCMQGRESPWTFGQGTKVDIK",0.027,0.109,0.005,0.004,> 100,> 100,0.057,0.228,> 100,> 100,0.979,3.92,0.035,0.139,0.001,0.004,0.026,0.104,> 100,> 100,IC50 (µg/ml) with constrains [3]: 0.001 µg/mL; IC50 (µg/ml) with constrains [12]: 0.826 µg/mL; IC50 (µg/ml) with constrains [13]: > 100 µg/mL; IC50 (µg/ml) with constrains [14]: 0.358 µg/mL; IC50 (µg/ml) with constrains [15]: 2.36 µg/mL; IC50 (µg/ml) with constrains [16]: 0.001 µg/mL; IC50 (µg/ml) with constrains [17]: 0.001 µg/mL; IC80 (µg/ml) with constrains [17]: 0.003 µg/mL; IC50 (µg/ml) with constrains [18]: 0.032 µg/mL; IC50 (µg/ml) with constrains [19]: > 100 µg/mL; IC50 (µg/ml) with constrains [20]: 0.018 µg/mL; IC50 (µg/ml) with constrains [21]: 0.339 µg/mL; IC50 (µg/ml) with constrains [22]: 0.006 µg/mL; IC50 (µg/ml) with constrains [23]: > 100 µg/mL; IC50 (µg/ml) with constrains [24]: 0.049 µg/mL
"ePGDM9 (antibody, V domains shown) VH: QAQLVQSGPEVRKPGTSVKVSCKNPGNTLTTYDLHWVRQVPGQGLQWMGWISHEGDKKVIVERFKAKVTIDWDRSTNTAYLQLSGLTSEDTAVYYCAKGSKHRLRDYALYDEDGALNWAVDVDYLANLEFWGQGTAVTVSS VL: DIVLTQSPLSLSVTPGESASISCKSSQSLIHGDRNNYLAWYVQKPGRSPQLLIDLASERASGVPDRFSGSGSRKDFTLKISRVETEDVGTYYCMQGRESPWTFGQGTKVDIK",0.009,0.036,0.006,0.002,> 100,> 100,0.021,0.084,> 100,> 100,0.293,1.17,0.019,0.078,0.001,0.003,0.019,0.078,> 100,> 100,IC50 (µg/ml) with constrains [12]: 0.588 µg/mL; IC50 (µg/ml) with constrains [13]: > 100 µg/mL; IC50 (µg/ml) with constrains [14]: 0.145 µg/mL; IC50 (µg/ml) with constrains [15]: 1.06 µg/mL; IC50 (µg/ml) with constrains [16]: 0.002 µg/mL; IC50 (µg/ml) with constrains [17]: 0.002 µg/mL; IC80 (µg/ml) with constrains [17]: 0.006 µg/mL; IC50 (µg/ml) with constrains [18]: 0.007 µg/mL; IC50 (µg/ml) with constrains [19]: > 100 µg/mL; IC50 (µg/ml) with constrains [20]: 0.134 µg/mL; IC50 (µg/ml) with constrains [21]: 0.135 µg/mL; IC50 (µg/ml) with constrains [22]: 0.004 µg/mL; IC50 (µg/ml) with constrains [23]: > 100 µg/mL; IC50 (µg/ml) with constrains [24]: 0.027 µg/mL
"PGDM1400 (antibody, V domains shown) VH: QVHLTQSGPEVRKPGTSVKVSCKAPGNTLKTYDLHWVRSVPGQGLQWMGWISHEGDKKVIVERFKAKVTIDWDRSTNTAYLQLSGLTSGDTAVYYCAKGSKHRLRDYALYDDDGALNWAVDVDYLSNLEFWGQGTAVTVSS VL: DFVLTQSPHSLSVTPGESASISCKSSHSLIHGDRNNYLAWYVQKPGRSPQLLIYLASSRASGVPDRFSGSGSDKDFTLKISRVETEDVGTYYCMQGRESPWTFGQGTKVDIK",0.01,0.041,0.009,0.005,> 100,> 100,0.131,0.523,> 100,> 100,0.871,3.48,0.121,0.483,0.001,0.003,0.019,0.075,> 100,> 100,IC50 (µg/ml) with constrains [3]: 0.001 µg/mL; IC50 (µg/ml) with constrains [12]: 1.86 µg/mL; IC50 (µg/ml) with constrains [13]: > 100 µg/mL; IC50 (µg/ml) with constrains [14]: 0.491 µg/mL; IC50 (µg/ml) with constrains [15]: 4.46 µg/mL; IC50 (µg/ml) with constrains [16]: 0.003 µg/mL; IC50 (µg/ml) with constrains [17]: 0.002 µg/mL; IC80 (µg/ml) with constrains [17]: 0.008 µg/mL; IC50 (µg/ml) with constrains [18]: 0.021 µg/mL; IC50 (µg/ml) with constrains [19]: > 100 µg/mL; IC50 (µg/ml) with constrains [20]: 0.025 µg/mL; IC50 (µg/ml) with constrains [21]: 0.32 µg/mL; IC50 (µg/ml) with constrains [22]: 0.006 µg/mL; IC50 (µg/ml) with constrains [23]: > 100 µg/mL; IC50 (µg/ml) with constrains [24]: 0.098 µg/mL
"ePGDM5 (antibody, V domains shown) VH: QAQLVQSGPEVRKPGTSVKVSCKNPGNTLTTYDLHWVRQVPGQGLQWMGWISHEGDKKVIVERFKAKVTIDWDRSTNTAYLQLSGLTSEDTAVYYCAKGSKHRLRDYALYDEDGALNWAVDVDYLANLEFWGQGTAVTVSS VL: DFVLTQSPLSLSVTPGESASISCKSDHSLQHGDRNNYLAWYVQKPGRSPQLLIDLASERASGVPDRFSGSGSRKDFTLKIDRVEAEDVGTYYCMQGRESPWTFGQGTKVDIK",0.007,0.029,0.005,0.004,> 100,> 100,0.043,0.174,> 100,> 100,0.536,2.15,0.021,0.086,0.001,0.004,0.028,0.113,> 100,> 100,IC50 (µg/ml) with constrains [3]: 0.001 µg/mL; IC50 (µg/ml) with constrains [12]: 0.473 µg/mL; IC50 (µg/ml) with constrains [13]: > 100 µg/mL; IC50 (µg/ml) with constrains [14]: 0.464 µg/mL; IC50 (µg/ml) with constrains [15]: 3.62 µg/mL; IC50 (µg/ml) with constrains [16]: 0.002 µg/mL; IC50 (µg/ml) with constrains [17]: 0.001 µg/mL; IC80 (µg/ml) with constrains [17]: 0.005 µg/mL; IC50 (µg/ml) with constrains [18]: 0.011 µg/mL; IC50 (µg/ml) with constrains [19]: > 100 µg/mL; IC50 (µg/ml) with constrains [20]: 0.011 µg/mL; IC50 (µg/ml) with constrains [21]: 0.187 µg/mL; IC50 (µg/ml) with constrains [22]: 0.006 µg/mL; IC50 (µg/ml) with constrains [23]: > 100 µg/mL; IC50 (µg/ml) with constrains [24]: 0.03 µg/mL
